A short description of the series: yeast display, Sf9 membrane polyspecificity reagent, FACS + sequencing; frameworks hold sequencing errors. The procedure, abridged:
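A synthetic nanobody library was expressed on Saccharomyces cerevisiae BJ5465 by galactose induction for 36–48 hours. The library was stained for 1 hour at 4 °C with 10% biotinylated, detergent-solubilized Sf9 membrane reagent and enriched with streptavidin microbeads before FACS. Low and high (top ~1%) gates were set on anti-HA fluorescence for expression and streptavidin fluorescence for reagent binding, and each polyreactivity label reflects the gate of origin.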
Consider “QVQLVESGGGLVQAGGSLRLTCAASGLILYWYAMGLYRQAPGTEMELVAAISISGGSTYYADSVKGRFTISRDNAKNTVYLQMNSLKPEDTAVYYCAAVYFYSWEGDGDYWGQGTQVTVSS”, for which the “polyreactivity (PSR sort gate)” value is “low polyreactivity”. The result for “QVQLVESGGGLVQAGGSLRLTCAASGLTFLVYALGWYRQEPGKEWEFVATISKSGGRTYYADSVKGRFTISRDNAKNTVYVQMNSLKPEHTAVDYCAAKGYPYGRLWCGYYRYDYWGQGTQVTVSS” reads “high polyreactivity”; that for “QVQLVESGGGLVQAGGSLRLTCAASGLTFNHNAMGWCRQAPGKERELVAAISRRGGSTYYADSVKGRFTISRDNAKNTVYLQMNSLKPEDTAVYYCAARRAWSWKIYDYWGQGTQVTVSS”, “high polyreactivity”; that for “QVQLVESGGGLVQAGGSLRLTCAASGLTFNYYAMGWYRQAPGKERELVAAISSDGRTDYADSVKGRFTISRDNAKNTVYLQMNSLKPEDTAVYYCAASWYRWGKSWRQYDYWGQGTQVNVSS”, “low polyreactivity”. Regarding “QVQLVESGGGLVQAGGSLRLTCAASGLTFSFYAMGWYRQAPGKEWELVAALSKGGGSTSYADSVKGRFTISRDNAKNTFYLQRNSLKPGDTAVYSCAAKDYKAPNKRLYDYWGQGTQVTVSS”, the “polyreactivity (PSR sort gate)” value was “high polyreactivity”. With “QVQLVESGGGLVQAGGSLRLTCAASGNIYLYYAMGWYRQAPGKERELVADIDSSGASTYYADSVKGRFTSSRDNAKNTVYLQMNSLKAEDTAVYYCAAEFHWWYAGYDYGYWGQGTQVTVSS” the entry was “low polyreactivity”. With “QVQLVESGGGLVQAGGSLRLTCAASGNTFVSNAMGWYRQAPGKERELVAAIDSGGSTNYADSVKGRFTISRDNAKNTVYLQMNSLKPEDTAVYYCNRTSVYYYYWGQGTQVTVSS” the entry was “low polyreactivity”; with “QVQLVESGGGLVQAGGSLRLTCAASGPIFVLYAMGWYRQAPGKERELVAAISTSGGSTYYADSVKGRFTISRDNAKNTVYLQMNSLKPEDTAVYYCAADRSARFLFIQYYPYGMDYWGQGTQVTVSS”, “high polyreactivity”; with “QVQLVESGGGLVQAGGSLRLTCAASGRIFSSYAMGWYRQAPGKERELVAAITGRDGSTYYADSVKGRFTISRDNAKNTVYLQMNSLKPEETAVYYCAASRFYFPLTFGGYPKLASYDYWGQGTQVTVSS”, “low polyreactivity”. On to “QVQLVESGGGLVQAGGSLRLTCAASGRIFSYYDMGWYRKAPGKERELVARISYSGDSTYYADSVKGRFTISRDNAKNTVYLQMNSLKPEDTAVYYCAAEVDSGYSEYYWGQGTQVTVSS”, for which the “polyreactivity (PSR sort gate)” value is listed as “low polyreactivity”. The result for “QVQLVESGGGLVQAGGSLRLTCAASGRIFTSYAMGWYRQAPGKERELVATITGSTASTYYADSVKGRFTISRDNAKYTVYLQMNSLKPEDTAVYYCAARSVGKRGYDYWGQCTQVTVSS” reads “high polyreactivity”; that for “QVQLVESGGGLVQAGGSLRLTCAASGRIFTTYAMGWYRQAPGKERELVAAISRSGGSTYYADSVKGRFTISRDNAKNTVYLQMNSMKPEDTAVYYCAAVPTSNSFRSSFYYWGQGTQVTVSS”, “high polyreactivity”. With “QVQLVESGGGLVQAGGSLRLTCAASGRIFYQYAMGWYRQAPGKEMDLVASITTSGGNTYYADSVKGRFTISRDNAKNTVYLQMNSLKPEDTAVYYCAARFNWRQWLYEYWGQGTQVTVSS” the entry was “low polyreactivity”; with “QVQLVESGGGLVQAGGSLRLTCAASGRIFYYYAMAWYRQAPGKEMELVAAIRRGGFTYYADSVKGRFTISRDNAKNTVYLQMYSLKQEDTAVYYCAAGVSKPNGYYYLRGYERGYWGQGTQVTVSS”, “high polyreactivity”; with “QVQLVESGGGLVQAGGSLRLTCAASGRILSHYAMVWYIQAPGKERELVATINSGGATYYADSVKGRFTISRDNAKYTVYFQMNSLKPEDTAVYYCAVDYAVSYAGWVLRYDYWGQGTQVTVSS”, “low polyreactivity”. On to “QVQLVESGGGLVQAGGSLRLTCAASGRNFQVYAMGWYRQAPGKERELVAGITRAGSTYYADSVKGRFTISRDNAKNTVYLQLNSLKPEDTAVYYCAASRWHGYNYWGQGTQVTVSS”, for which the “polyreactivity (PSR sort gate)” value is “high polyreactivity”.

For “QVQLVESGGGLVQAGGSLRLTCAASGRTFAINVMGWYIQAPGKERELVASIRGRGGRTNYADSVKGRFTISRDNAKNTVYLQMNRLKPEDTAVYYCAASQWWRYDYWGQGTQVTVSS”, the “polyreactivity (PSR sort gate)” value is reported as “high polyreactivity”. With “QVQLVESGGGLVQAGGSLRLTCAASGRTFAYNAMGWYRQAPGKERELVAAITSSGTSTYYADSVKGRFTISRDNAKNTVYLQINCLKPEDTAVYYCAGRQSQKYGLFYYWGQGTQVTVSS” the entry was “high polyreactivity”; with “QVQLVESGGGLVQAGGSLRLTCAASGRTFEQNAMGWNRPAPGKERELVASITSVGSTDYADSVKGRFTISRDNAKNTVYLQMNSLKPEDTAVYYCAKTLGSQNYDFDYWGQGTQVTVSS”, “low polyreactivity”. Regarding “QVQLVESGGGLVQAGGSLRLTCAASGRTFGINAMGWYRQAPGKERELVAAIDSIDGTTYYADSVKGHFTISRDNAKNTVYLPMNRLKPAATAVYYCAAEFISSYDYWGQGTQVTVSS”, the “polyreactivity (PSR sort gate)” value is on record as “high polyreactivity”. With “QVQLVESGGGLVQAGGSLRLTCAASGRTFRNYAMGWYRQAPGKEREMVAAISRSGGITYYADSVKGRFTISRDNAKNTVYLQMNSLKPEDTAVYYCAARHSYQGPGTYPMYYWGQGTQVTVTS” the entry was “high polyreactivity”; with “QVQLVESGGGLVQAGGSLRLTCAASGRTFSVNAMGWYRQAPGKEREFVAAIRTSGGSTSYADSVKVRFTISRDNAKYTVFLQMSSLKPEDTAVYYCAADYGGTSYVRGTVGRKYDYWGQGTQVTVSS”, “high polyreactivity”. The result for “QVQLVESGGGLVQAGGSLRLTCAASGRTFSYNAMGWYRQAPGKERELVAAISYDGGRTYYADSVKGRFTISRDNAKNSVYLQMNSLKPEDTAVYFCAAYPYRCPHPWTIGDYWGQGTQVTVSS” reads “low polyreactivity”.

Regarding “QVQLVESGGGLVQAGGSLRLTCAASGRTFTTYAMGWYRQAPGKERELFAAISGSGGSTYYADSVKGRFTISRDNAKNTVYLQMNSLKPEGTAVYYCATAYYYHGGYYYPYDDYWGQGTQVTVSS”, the “polyreactivity (PSR sort gate)” value is on record as “low polyreactivity”. With “QVQLVESGGGLVQAGGSLRLTCAASGRTLRYNAMGWYRPAPVKERELVAAITSTGSTNYADSVKGRFTISRDNAKLTVYLHMNSLTAEDTAVYYCAKTSRYYWYGYDYWGQGTQVTVSS” the entry was “high polyreactivity”; with “QVQLVESGGGLVQAGGSLRLTCAASGSIFGNNAMGWYRQATGKERELVAVITDGGNTYYADSVKGRFTISRDNAKNTVYLQMNSLKPEDTAVYYCNAEWWGDSVYWGQGTQVTVSS”, “low polyreactivity”. With “QVQLVESGGGLVQAGGSLRLTCAASGSIFGYAMGWYRQEPGKERELVAAISFSGVSTYYADSVKGRFTISRDNAKNTVYLLMNSLKPEDTAVYDCNAYSDGDEDYWGQGTQVTVSS” the entry was “low polyreactivity”; with “QVQLVESGGGLVQAGGSLRLTCAASGSIFSFYAMGWYRQAPGKERELVAAITQSDSSTYYADSVKGRFTISRDNAKNTVYLQMNSLKPVDTAVYYCAKDYYAYSDYDYWGQGTQVTVSS”, “low polyreactivity”.

Take “QVQLVESGGGLVQAGGSLRLTCAASGSIFSHYAMGWYRQATGKERELVAAITYGGGSTYYADSVKGRFTISRDIAMNTVYLQMNSLKPDDTAVYYCAKEFKYWGYPYDYWGQGTQVTVSS”: the “polyreactivity (PSR sort gate)” value is on record as “low polyreactivity”.

On to “QVQLVESGGGLVQAGGSLRLTCAASGSIFSLNVMGRYRQAPGKERELVATIRGRGTSTYYADSVKGRFTISRYNAKINVYLHMNSLKPEDTAVYYWAARGHGAYGYWGQGTQVTVSS”, for which the “polyreactivity (PSR sort gate)” value is listed as “low polyreactivity”.

With “QVQLVESGGGLVQAGGSLRLTCAASGSIFSYNVMGWYRQAPGKERELVAVITGSGGSTYYADSVKGRFTISRDNAKNTVYLQMYSLKPEDTAVYYCAATYSGWQWYETYYYWGQGTQVTVSS”, the “polyreactivity (PSR sort gate)” value was “low polyreactivity”. For “QVQLVESGGGLVQAGGSLRLTCAASGSIFVNNAMGWYRQAPGKEMELVAAIRRSGGNTYYADSVKGRFTISRDNAKNTVYLQMNSLIPEDTAVYYCNVVRRADSIRAKSRDYWGQGTQVTVSS”, the “polyreactivity (PSR sort gate)” value is recorded as “high polyreactivity”.

As to “QVQLVESGGGLVQAGGSLRLTCAASGSIFVQYAMGWYRQAPGKERELVATISSSGGSTYYADSVKGRCTISRDNAKNTVYLQMNSLKPEDTAVYYFAADWTLDRSYGYYADDYWGQGTQVTVSS”, the “polyreactivity (PSR sort gate)” value is reported as “low polyreactivity”. The result for “QVQLVESGGGLVQAGGSLRLTCAASGSIFYWYAMGWYRQAPGKERELVAAISSSGSTNYADSVKGRFTISRDNAKNTVYLQMNSLKPEDTAVYYCGAYRTGYNGWGYGYWGQGTQVTVSS” reads “high polyreactivity”.

For the sequence “QVQLVESGGGLVQAGGSLRLTCAASGSIIALYAMGWYRQAPGKERELVATISSCVSTYYADSVKGRFTISRDNAKNTVYLQLNSLKPEDTAVYYCAADKTVRSSNYDYWGQCTQVTVSS”, the “polyreactivity (PSR sort gate)” value is recorded as “low polyreactivity”. With “QVQLVESGGGLVQAGGSLRLTCAASGSILIYNAMGWYRQAPGKQRELVADITNGGSTNYADSVKGRFTISRDNAKNTVYLQMHSLKPDDTAVYYCAKDAYYWWGPDYDYWGQGTQVTVSS” the entry was “low polyreactivity”; with “QVQLVESGGGLVQAGGSLRLTCAASGSISGLYTMGWYRQAPGKERELVAAIRWTTGTTYYADSVKGRFTISRDNAKNTVYLQMNSLKPEDTAVYYCNVVTWYYVFRPWEYDYWGQGTQVTVSS”, “low polyreactivity”; with “QVQLVESGGGLVQAGGSLRLTCAASGSTFAGNAMGWYRQATGKERELVAAIDSSTGSTYYADSVKGRFTISRDNAKNTVYLQMNSLKPEDSAVYYCNKTSFLVKLDYWGQGTQVTVSS”, “low polyreactivity”. With “QVQLVESGGGLVQAGGSLRLTCAASGSTFFPNDMGWYRQAPGKERELVDAISWRGGNTYADSVKGRFTISRDNAKNTVLLQMNSLKPEDTAVYYCAADVEWTSRGSYYRYYYWGQGTQVTVSS” the entry was “low polyreactivity”. The result for “QVQLVESGGGLVQAGGSLRLTCAASGSTFLFYARGWYRQAPGKERELVAAIRGRGGSTYYADSVKGRFTISRDNAKNTVYLQMNSLKPEDTAVYYCAALSRFPVNRYSDLDLYYWGEGTQVTVSS” reads “high polyreactivity”.

The values above are taken from the nanobody polyreactivity screen of Harvey et al. (2022).
